Assay results from the supplement of paper PMC11908140.

B1: library; numbered along this chain (parent)
chain: MRKPRAAVGSGHRKQAASQEGRQKHAKNNSQAKPSACDGLARQPEEVVLQASVSSYHLFRDVAEVTAFRGSLLSWYDQEKRDLPWRRRAEDEMDLDRRAYAVWVSEVMLQQTQVATVINYYTGWMQKWPTLQDLASASLEEVNQLWAGLGYYSRGRRLQEGARKVVEELGGHMPRTAETLQQLLPGVGRYTAGAIASIAFGQATGVVDGNVARVLCRVRAIGADPSSTLVSQQLWGLAQQLVDPARPGDFNQAAMELGATVCTPQRPLCSQCPVESLCRARQRVEQEQLLASGSLSGSPDVEECAPNTGQCHLCLPPSEPWDQTLGVVNFPRKASRKPPREESSATCVLEQPGALGAQILLVQRPNSGLLAGLWEFPSVTWEPSEQLQRKALLQELQRWAGPLPATHLRHLGEVVHTFSHIKLTYQVYGLALEGQTPVTTVPPGARWLTQEEFHTAAVSTAMKKVFRVYQGQQPGTCMGSKRSQVSSPCSRKKPRMGQQVLDNFFRSHISTDAHSLNSAAQ

Variants of: B1
Assay: 8OG:A repair function score (normalized; synonymous = 0, nonsense = -1) (normalized log-likelihood score); higher = more repair activity (WT-like)
Details: with 8OG:A DNA repair reporter (GFP) in HEK-293 MUTYH KO cells
In short: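 GFP+ (repair) and GFP− bins of viable mCherry+ cells were collected at 72 h from MUTYH knockout HEK-293 cells bearing lentiviral MUTYH cDNA NNN codon-scan libraries in 10 pg/ml doxycycline, co-transfected with an 8OG:A GFP repair reporter and mCherry. Tile amplicons were sequenced, and per-tile Rosace fitness scores were normalized to a repair function score anchored on synonymous and nonsense distributions. Synonymous medians were set to 0 and nonsense to -1, with variants under 300 counts per million at the start removed.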
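Further: cells sorted at 72 h after reporter transfection.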

Variant	8OG:A repair function score
MRKPRAAVGSGHRKQAASQEGRQKHAKNNSQAKPSACDGLARQPEEVVLQASVSSYHLFRDVAEVTAFRGSLLSWYDQEKRDLPWRRRAEDEMDLDRRAYAVWVSEVMLQQTQVATVINYYTGWMQKWPTLQDLASASLEEVNQLWAGLGYYSRGRRLQEGARKVVEELGGHMPRTAETLQQLLPGVGRYTAGAIASIAFGQATGVVDGNVARVLCRVRAIGADPSSTLVSQQLWGLAQQLVDPARPGDFNQAAMELGATVCTPQRPLCSQCPVESLCRARQRVEQEQLLASGSLSGSPDVEECAPNTGQCHLCLPPSEPWDQTLGVVNFPRKASRKPPREESSATCVLEQPGALGAQILLVQRPNSGLLAGLWEFPSVTWEPSEQLQRKALLQELQRWAGPLPATHLRHLGEVVHTFSHIKLTYQVYGLALEGQTPVTTVPPGARWLTQEEFHTAAVSTAMKKVFRVYQGQQPGTCMGSKRSWVSSPCSRKKPRMGQQVLDNFFRSHISTDAHSLNSAAQ [Q484W]	0.00872
MRKPRAAVGSGHRKQAASQEGRQKHAKNNSQAKPSACDGLARQPEEVVLQASVSSYHLFRDVAEVTAFRGSLLSWYDQEKRDLPWRRRAEDEMDLDRRAYAVWVSEVMLQQTQVATVINYYTGWMQKWPTLQDLASASLEEVNQLWAGLGYYSRGRRLQEGARKVVEELGGHMPRTAETLQQLLPGVGRYTAGAIASIAFGQATGVVDGNVARVLCRVRAIGADPSSTLVSQQLWGLAQQLVDPARPGDFNQAAMELGATVCTPQRPLCSQCPVESLCRARQRVEQEQLLAHGSLSGSPDVEECAPNTGQCHLCLPPSEPWDQTLGVVNFPRKASRKPPREESSATCVLEQPGALGAQILLVQRPNSGLLAGLWEFPSVTWEPSEQLQRKALLQELQRWAGPLPATHLRHLGEVVHTFSHIKLTYQVYGLALEGQTPVTTVPPGARWLTQEEFHTAAVSTAMKKVFRVYQGQQPGTCMGSKRSQVSSPCSRKKPRMGQQVLDNFFRSHISTDAHSLNSAAQ [S292H]	-0.00367
MRKPRAAVGSGHRKQAASQEGRQKHAKNNSQAKPSACDGLARQPEEVVLQASVSSYHLFRDVAEVTAFRGSLLSWYDQEKRDLPWRRRAEDEMDLDRRAYAVWVSEVMLQQTQVATVINYYTGWMQKWPTLQDLASASLEEVNQLWAGLGYYSRGRRLQEGARKVVEELGGHMPRTAETLQQLLPGVGRYTAGAIASIAFGQATGVVDGNVARVLCRVRAIGADPSSTLVSQQLWGLAQQLVDPARPGDFNQAAMELGATVCTPQRPLCSQCPVESLCRARQRVEQEQLLASGSLSGSPDVEECAPNTGQCHLCLPPSEPWDQTLGVVNFPRKASRKPPREESSATCVLEQPGALGAQILLVQRPNSGLLAGLWEFPSVTWEPSEQLQRKALLQELQRWAGPLPATHLRHLGEVVHTFSHIKLTYQVYGLALEGQTPVTTVPPGARWLTQEEFHTAAVSTAMKKVFRVYQGQQPGTCMGSKRSQVSSPCSRKKPRMGQQVLDNFFRSHISTDAHSLNSAAC [Q521C]	0.00296
MRKPRAAVGSGHRKQAASQEGRQKHAKNNSQAKPSACDGLARQPEEVVLQASVSSYHLFRDVAEVTAFRGSLLSWYDQEKRDLPWRRRAEDEMDLDRRAYAVWVSEVMLQQTQVATVINYYTGWMQKWPTLQDLASASLEEVNQLWAGLGYYRRGRRLQEGARKVVEELGGHMPRTAETLQQLLPGVGRYTAGAIASIAFGQATGVVDGNVARVLCRVRAIGADPSSTLVSQQLWGLAQQLVDPARPGDFNQAAMELGATVCTPQRPLCSQCPVESLCRARQRVEQEQLLASGSLSGSPDVEECAPNTGQCHLCLPPSEPWDQTLGVVNFPRKASRKPPREESSATCVLEQPGALGAQILLVQRPNSGLLAGLWEFPSVTWEPSEQLQRKALLQELQRWAGPLPATHLRHLGEVVHTFSHIKLTYQVYGLALEGQTPVTTVPPGARWLTQEEFHTAAVSTAMKKVFRVYQGQQPGTCMGSKRSQVSSPCSRKKPRMGQQVLDNFFRSHISTDAHSLNSAAQ [S153R]	-0.265
MRKPRAAVGSGHRKQAASQEGRQKHAKNNSQAKPSACDGLARQPEEVVLQASVSSYHLFRDVAEVTAFRGSLLSWYDQEKRDLPWRRRAEDEMDLDRRAYAVWVSEVMLQQTQVATVINYYTGWMQKWPTLQDLASASLEEVNQLWAGLGYYSRGRRLQEGARKVVEELGGHMPRTAETLQQLLPGVGRYTAGAIASIAFGQATGVVDGNVARVLCRVRAIGADPSSTLVSQQLWGLAQQLVDPARPGDFNQAAMELGATVCTPQRPLCSQCPVESLCRARQRVEQEQLLASGSLSGSPDVEECAPNTGQCHLCLPPSEPWDQTLGVVNFPRKASRKPPREESSATCVLEQPGALGAQILLVQRPNSGLLAGLWEFPSVTWEPSEQMQRKALLQELQRWAGPLPATHLRHLGEVVHTFSHIKLTYQVYGLALEGQTPVTTVPPGARWLTQEEFHTAAVSTAMKKVFRVYQGQQPGTCMGSKRSQVSSPCSRKKPRMGQQVLDNFFRSHISTDAHSLNSAAQ [L387M]	0.0425
MRKPRAAVGSGHRKQAASQEGRQKHAKNNSQAKPSACDGLARQPEEVVLQASVSSYHLFRDVAEVTAFRGSLLSWYDQEKRDLPWRRRAEDEMDLDRRAYAVWVSEVMLQQTQVATVINYYTGWMQKWPTLQDLASASLEEVNQLWAGLGYYSRGRRLQEGARKVVEELGGHMPRTAETLQQLLPGVGRYTAGAIASIAFGQATGVVDGNVARVLCRVRAIGADPSSTLVSQQLWGLAQQLVDPARPGDFNQAAMELGATVCTPQRPLCSQCPVESLCRARQRVEQEQLLASGSLSGSPDVEECAPNTGQCHLCLPPSEPWDQTLGVVNFPRKASRKPPREESSATCVLEQPGALGAQILLVQRPNSGLLAGLWEFPSVTWEPSEQLQRKALLQELQRWAGPLPWTHLRHLGEVVHTFSHIKLTYQVYGLALEGQTPVTTVPPGARWLTQEEFHTAAVSTAMKKVFRVYQGQQPGTCMGSKRSQVSSPCSRKKPRMGQQVLDNFFRSHISTDAHSLNSAAQ [A405W]	-0.606
MRKPRAAVGSGHRKQAASQEGRQKHAKNNSQAKPSACDGLARQPEEVVLQASVSSYHLFRDVAEVTAFRGSLLSWYDQEKRDLPWRRRAEDEMDLRRRAYAVWVSEVMLQQTQVATVINYYTGWMQKWPTLQDLASASLEEVNQLWAGLGYYSRGRRLQEGARKVVEELGGHMPRTAETLQQLLPGVGRYTAGAIASIAFGQATGVVDGNVARVLCRVRAIGADPSSTLVSQQLWGLAQQLVDPARPGDFNQAAMELGATVCTPQRPLCSQCPVESLCRARQRVEQEQLLASGSLSGSPDVEECAPNTGQCHLCLPPSEPWDQTLGVVNFPRKASRKPPREESSATCVLEQPGALGAQILLVQRPNSGLLAGLWEFPSVTWEPSEQLQRKALLQELQRWAGPLPATHLRHLGEVVHTFSHIKLTYQVYGLALEGQTPVTTVPPGARWLTQEEFHTAAVSTAMKKVFRVYQGQQPGTCMGSKRSQVSSPCSRKKPRMGQQVLDNFFRSHISTDAHSLNSAAQ [D96R]	-0.506
MRKPRAAVGSGHRKQAASQEGRQKHAKNNSQAKPSACDGLARQPEEVVLQASVSSYHLFRDVAEVTAFRGSLLSWYDQEKRDLPWRRRAEDEMDLDRRAYAVWVSEVMLQQTQVATVINYYTGWMQKWPTLQDLASASLEEVNQLWAGLGYYSRGRRLQEGARKVVEELGGHMPRTAETLQQLLPGVGRYTAGAIASIAFGQATGVVDGNVARVLCRVRAIGADPSSTLVSQQLWELAQQLVDPARPGDFNQAAMELGATVCTPQRPLCSQCPVESLCRARQRVEQEQLLASGSLSGSPDVEECAPNTGQCHLCLPPSEPWDQTLGVVNFPRKASRKPPREESSATCVLEQPGALGAQILLVQRPNSGLLAGLWEFPSVTWEPSEQLQRKALLQELQRWAGPLPATHLRHLGEVVHTFSHIKLTYQVYGLALEGQTPVTTVPPGARWLTQEEFHTAAVSTAMKKVFRVYQGQQPGTCMGSKRSQVSSPCSRKKPRMGQQVLDNFFRSHISTDAHSLNSAAQ [G236E]	0.29
MRKPRAAVGSGHRKQAASQEGRQKHAKNNSQAKPSACDGLARQPEEVVLQASVSSYHLFRDVAEVTAFRGSLLSWYDQEKRDLPWRRRAEDEMDLDRRAYAVWVSEVMNQQTQVATVINYYTGWMQKWPTLQDLASASLEEVNQLWAGLGYYSRGRRLQEGARKVVEELGGHMPRTAETLQQLLPGVGRYTAGAIASIAFGQATGVVDGNVARVLCRVRAIGADPSSTLVSQQLWGLAQQLVDPARPGDFNQAAMELGATVCTPQRPLCSQCPVESLCRARQRVEQEQLLASGSLSGSPDVEECAPNTGQCHLCLPPSEPWDQTLGVVNFPRKASRKPPREESSATCVLEQPGALGAQILLVQRPNSGLLAGLWEFPSVTWEPSEQLQRKALLQELQRWAGPLPATHLRHLGEVVHTFSHIKLTYQVYGLALEGQTPVTTVPPGARWLTQEEFHTAAVSTAMKKVFRVYQGQQPGTCMGSKRSQVSSPCSRKKPRMGQQVLDNFFRSHISTDAHSLNSAAQ [L109N]	-0.45
MRKPRAAVGSGHRKQAASQEGRQKHAKNNSQAKPSACDGLARQPEEVVLQASVSSYHLFRDVAEVTAFRGSLLSWYDQEKRDLPWRRRAEDEMDLDRRAYAVWVSEVMLQQTQVATVINYYTGWMQKWPTLQDLASASLEEVNQLWAGLGYYSRGRRLQEGARKVVEELGGHMPRTAETLQQLLPGVGRYTAGAIASIAFGQATGVVDGNVARVLCRVRAIGADPSSTLVSQQLWGLAQQLVDPARPGDFNQAAMELGATVCTPQRPLCSQCPVESLCRARQRVEQEQLLASGSLSGSPDVEECAPNTGQCHLCLPPSEPWDQTLGVVNFPRKASRKPPREESSATCVLEQPGALGAQILLVQEPNSGLLAGLWEFPSVTWEPSEQLQRKALLQELQRWAGPLPATHLRHLGEVVHTFSHIKLTYQVYGLALEGQTPVTTVPPGARWLTQEEFHTAAVSTAMKKVFRVYQGQQPGTCMGSKRSQVSSPCSRKKPRMGQQVLDNFFRSHISTDAHSLNSAAQ [R364E]	-0.504
MRKPRAAVGSGHRKQAASQEGRQKHAKNNSQAKPSACDGLARQPEEVVLQASVSSYHLFRDVAEVTAFRGSLLSWYDQEKRDLPWRRRAEDEMDLDRRAYAVWVSEVMLQQTQVATVINYYTGWMQKWPTLQDLASASLEEVNQLWAGLGYYSRGRRLQEGARKVVEELGGHMPRTAETLQQLLPGVGRYTAGAIASIAFGQATGVVDGNVARVPCRVRAIGADPSSTLVSQQLWGLAQQLVDPARPGDFNQAAMELGATVCTPQRPLCSQCPVESLCRARQRVEQEQLLASGSLSGSPDVEECAPNTGQCHLCLPPSEPWDQTLGVVNFPRKASRKPPREESSATCVLEQPGALGAQILLVQRPNSGLLAGLWEFPSVTWEPSEQLQRKALLQELQRWAGPLPATHLRHLGEVVHTFSHIKLTYQVYGLALEGQTPVTTVPPGARWLTQEEFHTAAVSTAMKKVFRVYQGQQPGTCMGSKRSQVSSPCSRKKPRMGQQVLDNFFRSHISTDAHSLNSAAQ [L215P]	-1.03
MRKPRAAVGSGHRKQAASQEGRQKHAKNNSQAKPSACDGLARQPEEVVLQASVSSYHLFRDVAEVTAFRGSLLSWYDQEKRDLPWRRRAEDVMDLDRRAYAVWVSEVMLQQTQVATVINYYTGWMQKWPTLQDLASASLEEVNQLWAGLGYYSRGRRLQEGARKVVEELGGHMPRTAETLQQLLPGVGRYTAGAIASIAFGQATGVVDGNVARVLCRVRAIGADPSSTLVSQQLWGLAQQLVDPARPGDFNQAAMELGATVCTPQRPLCSQCPVESLCRARQRVEQEQLLASGSLSGSPDVEECAPNTGQCHLCLPPSEPWDQTLGVVNFPRKASRKPPREESSATCVLEQPGALGAQILLVQRPNSGLLAGLWEFPSVTWEPSEQLQRKALLQELQRWAGPLPATHLRHLGEVVHTFSHIKLTYQVYGLALEGQTPVTTVPPGARWLTQEEFHTAAVSTAMKKVFRVYQGQQPGTCMGSKRSQVSSPCSRKKPRMGQQVLDNFFRSHISTDAHSLNSAAQ [E92V]	-0.0677
